Data taken from EP3170507A1 (Consejo Superior de Investigaciones Cientificas (CSIC), dated 2017).

T1: rabbit-lung angiotensin converting enzyme (ACE) (Sigma) (rabbit, UniProt P12822 34-1310, limits assumed)
T1 sequence (looked up): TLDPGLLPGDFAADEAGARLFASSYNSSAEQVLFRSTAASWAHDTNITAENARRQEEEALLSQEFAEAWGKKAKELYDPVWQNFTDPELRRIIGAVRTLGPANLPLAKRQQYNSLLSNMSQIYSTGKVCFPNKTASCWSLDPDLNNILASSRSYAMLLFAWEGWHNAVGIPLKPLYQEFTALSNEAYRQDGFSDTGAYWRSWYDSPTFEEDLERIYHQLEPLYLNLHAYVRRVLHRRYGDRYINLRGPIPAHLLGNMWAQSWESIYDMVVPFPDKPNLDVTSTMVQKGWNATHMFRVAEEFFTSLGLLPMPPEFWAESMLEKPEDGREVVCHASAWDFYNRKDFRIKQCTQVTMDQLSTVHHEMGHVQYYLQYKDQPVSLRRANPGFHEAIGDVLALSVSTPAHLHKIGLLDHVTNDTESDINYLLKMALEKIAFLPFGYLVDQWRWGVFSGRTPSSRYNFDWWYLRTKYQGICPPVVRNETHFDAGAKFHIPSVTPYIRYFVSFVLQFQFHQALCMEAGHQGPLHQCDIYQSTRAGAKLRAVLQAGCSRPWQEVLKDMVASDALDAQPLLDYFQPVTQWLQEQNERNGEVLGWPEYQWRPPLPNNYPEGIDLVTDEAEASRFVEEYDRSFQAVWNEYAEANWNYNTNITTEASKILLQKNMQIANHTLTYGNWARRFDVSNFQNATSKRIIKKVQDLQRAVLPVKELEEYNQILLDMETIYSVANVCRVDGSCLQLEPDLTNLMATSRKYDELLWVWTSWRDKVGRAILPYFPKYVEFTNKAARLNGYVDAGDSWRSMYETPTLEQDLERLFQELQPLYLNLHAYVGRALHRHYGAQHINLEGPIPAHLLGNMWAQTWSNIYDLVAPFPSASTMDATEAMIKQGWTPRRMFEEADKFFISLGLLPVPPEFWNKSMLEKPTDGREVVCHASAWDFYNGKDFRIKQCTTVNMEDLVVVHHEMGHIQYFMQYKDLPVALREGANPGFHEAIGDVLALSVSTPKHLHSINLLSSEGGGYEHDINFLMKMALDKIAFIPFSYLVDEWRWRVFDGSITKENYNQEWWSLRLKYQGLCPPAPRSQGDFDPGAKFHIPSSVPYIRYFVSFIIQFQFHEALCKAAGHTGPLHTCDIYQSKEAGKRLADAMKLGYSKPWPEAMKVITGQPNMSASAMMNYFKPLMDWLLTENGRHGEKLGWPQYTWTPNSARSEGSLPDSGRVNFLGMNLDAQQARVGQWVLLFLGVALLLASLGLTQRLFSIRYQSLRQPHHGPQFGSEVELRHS


Target: T1, rabbit-lung angiotensin converting …
Experiment: cell-based or functional assay

Binder | ACE inhibitory activity, IC50 [nM]
YGCGCDPL [SEQ ID NO: 3 peptide YGCGCDPL] | 1850
YYCPADCPS [SEQ ID NO: 2 peptide YYCPADCPS] | 1640
RDGGYCC [SEQ ID NO: 1 peptide RDGGYCC] | 840

Now from value to binder:

ACE inhibitory activity, IC50 [nM] | Binder
2590 | HCGCNTH [SEQ ID NO: 5 peptide HCGCNTH]
6880 | WAAGYCC [SEQ ID NO: 6 peptide WAAGYCC]
2580 | LEEFCC [SEQ ID NO: 4 peptide LEEFCC]
39600 | CCGNAVPQ [SEQ ID NO: 7 peptide CCGNAVPQ]
